Experimental data reported in patent US20120021999A1 (published 2012).
Ends that are not written are not given here. * marks the point of attachment. Biotin = O=C1N[C@H]2[C@H](CS[C@H]2CCCCC(=O)*)N1

T1: caspase-9 from IL-2-stimulated TS1αβ cellular extracts (mouse, UniProt Q8C3Q9 1-454, limits assumed)
T1 construct: Endogenous protein in a cell lysate
T1 sequence (looked up): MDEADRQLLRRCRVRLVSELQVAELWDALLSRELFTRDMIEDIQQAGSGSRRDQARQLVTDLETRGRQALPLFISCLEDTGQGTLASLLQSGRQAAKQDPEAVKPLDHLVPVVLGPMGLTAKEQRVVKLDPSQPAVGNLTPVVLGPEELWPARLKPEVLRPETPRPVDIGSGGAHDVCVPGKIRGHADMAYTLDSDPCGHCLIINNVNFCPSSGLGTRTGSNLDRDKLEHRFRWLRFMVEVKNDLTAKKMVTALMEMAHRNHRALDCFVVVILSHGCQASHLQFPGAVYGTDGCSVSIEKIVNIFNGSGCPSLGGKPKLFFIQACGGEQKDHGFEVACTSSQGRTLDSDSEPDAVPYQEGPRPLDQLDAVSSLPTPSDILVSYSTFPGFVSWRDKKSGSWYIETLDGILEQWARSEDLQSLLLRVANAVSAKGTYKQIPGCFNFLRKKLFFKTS


Columns and labels:
[1] = molecular target: T2, PP2Ac from IL-2-stimulated TS1αβ cellular extracts (mouse, UniProt P63330 1-309); assay: pull-down of biotinylated peptide on streptavidin beads from TS1αβ cell extracts, anti-PP2Ac immunoblot
T2 construct: Endogenous protein in a cell lysate, detected by immunoblot with anti-PP2Ac antibody
Description: Control streptavidin-sepharose alone or conjugated to DPT-C9, DPT-C9r, DPT-sh1 or C9 peptides were incubated with IL-2-stimulated cellular extracts form TS1αβ cells (10⁷ cells/point). Identification of unbound proteins in lysates or bound proteins in pull-down experiments was performed by immunoblotting using antibodies against PP2Ac or PP1c.
Biotinylated peptides were preincubated 2 h at 0-100 μM (in final concentration with lysate) at room temperature with 30 μl of streptavidin-coated immunomagnetic beads (Calbiochem, San Diego Calif.). During this time, 10⁷ exponentially growing TS1αβ cells were first washed twice with PBS and then lysed 10 minutes on ice in 400 μl of lysis buffer (50 mM Tris pH7.4, 150 mM NaCl, 20% glycerol, 1% NP-40, 10 mM EDTA, 1 mM PhenylMethylSulfonyl Fluoride, 10 mM NaF, 1 mM orthovanadate, “complete, EDTA-free” protease inhibitor cocktail from Roche).
Lysates were clarified at 13000 g for 10 minutes at 4° C. and were incubated with biotinylated peptides associated with the streptavidin-coated immunomagnetic beads 2 h at 4° C. Biotinylated peptides were pulled down with streptavidin beads and washed two times in 700 μl of lysis buffer on ice. Bound proteins and unbound lysates were then analyzed by SDS-PAGE and Western Blotting using PP1c or PP2Ac antibodies.

[2] = molecular target: T1, caspase-9 from IL-2-stimulated TS1αβ …; assay: pull-down of biotinylated peptide on streptavidin beads from TS1αβ cell extracts, immunoblot

T2 sequence (P63330 whole entry): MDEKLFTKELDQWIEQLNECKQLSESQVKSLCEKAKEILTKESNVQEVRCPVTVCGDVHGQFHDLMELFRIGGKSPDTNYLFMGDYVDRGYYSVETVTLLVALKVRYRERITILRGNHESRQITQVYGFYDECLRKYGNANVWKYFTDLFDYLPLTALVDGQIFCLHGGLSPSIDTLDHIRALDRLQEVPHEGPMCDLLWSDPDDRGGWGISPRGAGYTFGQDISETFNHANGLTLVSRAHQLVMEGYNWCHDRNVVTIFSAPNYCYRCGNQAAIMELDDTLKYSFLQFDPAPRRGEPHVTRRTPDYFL

Row | Binder | binding result [1] | binding result [2]
1 | Biotin-VKKKKIKREIKI (Penetrating shuttle peptide; origin printed as CK2alpha (human); Biotinylated, held on streptavidin beads in the pull-down; also called shuttle) [DPT-sh1] | no binding | 
2 | Biotin-YIETLDGILEQWARSEDL (Synthetic NH2-biotinylated peptide, held on streptavidin beads in the pull-down) [C9] |  | no binding
3 | Biotin-VKKKKIKREIKIYIETLDGILEQWARSEDL (Biotinylated, held on streptavidin beads in the pull-down) [DPT-C9] |  | no binding
4 | Biotin-VKKKKIKREIKILDESRAWQELIGDLTEIY (Biotinylated, held on streptavidin beads in the pull-down) [DPT-C9r] | no binding | 
